Test [1] relates to Wild-type (Col-0), Δppd mutant and transgenic PPD-OX seedlings. Kind of test: Hypocotyl elongation of seedlings on exogenous GA or PAC. Format: in vivo, Arabidopsis thaliana. An excerpt: Giberellic acid (GA) treatment is known to reduce levels of the DELLA proteins (including RGA1) which are GA repressors; to determine the relationship between PPD, DELLA and the GA signalling pathway the applicants performed a yeast two-hybrid (Y2H) analysis between PPD and DELLA (RGA1) and applied gibberellic acid (GA) hormone and GA biosynthesis inhibitor (paclobutrazol, PAC) to wild type, Δppd mutant, and the Δppd mutant PPD over expressor (PPD-OX).
For exogenous applications of GA or PAC seeds were surface sterilised with 70% ethanol, 0.01% Triton X-100 for 10 min, followed by 100% ethanol for 5 min, air dried on sterile filter paper, and transferred to media plates containing half-strength MS salts, 1% sucrose and 0.8% agar. Plates were incubated for 5 days at 4° C. in the dark then transferred to 24° C. with a 14 h light/10 h dark daily cycle. Light was provided by fluorescent tubes (Philips TLD 58W/865) at an intensity of 100 μM m^−2s^−1. Wild-type (Col-0) Δppd mutant and transgenic PPD-OX seedlings were grown for five days on medium with different concentrations of GA (FIG. 11A) or PAC (FIG. 11B). GA (ACROS organics), and PAC (Sigma-Aldrich) were dissolved in ethanol and acetone respectively, filter sterilised and incorporated into media plates. Ethanol or acetone (0.5%) was used for mock treatments. Seedlings were grown at 24° C. under a 14 h light/10 h dark daily cycle for 5 days before hypocotyl lengths were analysed (n=35). Each treatment was repeated twice; error bars=standard error of the mean.

In test [2] the test system is ryegrass plants. Kind of test: Root biomass analysis of grass transformants. In kind it is in vivo. Particulars: constitutive promoter, root growth beyond the grow bag, approximately 6 weeks. How it is done:
An equal number (typically 4-10) of tillers were taken from WT and ryegrass plants transformed with Arabidopsis PPD under one of three root promoters. Tillers were planted into plastic grow bags containing potting mix and pruned to be of equal height. […] The increase in root biomass was quantified removing the attached above ground portion (leaves and shoots) and drying the roots at 65° C. for 48 hr then weighing the dry weights (Tables 3 and 4)
An equal number (typically 4-10) of tillers were taken from WT and ryegrass plants transformed with Arabidopsis PPD under a constitutive promoter. Tillers were planted into plastic grow bags containing potting mix and pruned to be of equal height. […] The increase in root biomass was quantified removing the attached above ground portion (leaves and shoots) and drying the roots at 65° C. for 48 hr then weighing the dry weights (Table 5).

Test [3] relates to ryegrass plants. Put plainly: Leaf biomass analysis of grass transformants. In kind it is in vivo. The conditions noted are these: constitutive promoter, observed leaf growth, approximately 6 weeks. On the procedure: An equal number (typically 4-10) of tillers were taken from WT and ryegrass plants transformed with Arabidopsis PPD under one of two green tissue promoters. Tillers were planted into plastic grow bags containing potting mix and pruned to be of equal height. […] The increase in leaf/shoot biomass can be quantified removing the attached above ground portion (leaves and shoots) and drying them at 65° C. for 48 hr then weighing the dry weights.
An equal number (typically 4-10) of tillers were taken from WT and ryegrass plants transformed with Arabidopsis PPD under a constitutive promoter. Tillers were planted into plastic grow bags containing potting mix and pruned to be of equal height. […] The increase in leaf/shoot biomass was quantified removing the attached above ground portion (leaves and shoots) and drying them at 65° C. for 48 hr then weighing the dry weights (Table 2).

The subject of a further test is Arabidopsis Δppd mutant. Kind of test: Complementation of the Arabidopsis Δppd mutant leaf phenotype. Format: in vivo. Particulars: CaMV35s promoter, Arabidopsis thaliana ecotype Landsberg erecta, FIG. 13. An excerpt: The functionality of any PEAPOD sequence can be confirmed by complementation of the Arabidopsis Δppd mutant leaf phenotype. Complementation of the Arabidopsis Δppd mutant leaf phenotype was first used to identify the Arabidopsis PPD gene (White 2006). This was seen by a restoration of the wild type flattened leaf phenotype and normal rosette shape as opposed to the domed leaf and the twisting of the rosette to a “propeller” phenotype.
Arabidopsis thaliana (L.) Heynh ecotype Ler can be used as wild-type (WT). The Δppd loss of function deletion mutant (with PPD1 and PPD2 deleted) is as previously described in White 2006, PNAS 103, 13238-13243.
Plants are grown in a temperature-controlled glasshouse at a continuous 21° C. or in a controlled environment cabinet at 23° C. in 16-h light_8-h dark cycles.
Constructs above can be transformed into Arabidopsis by the floral dip infiltration method (Clough and Bent, 1998, Plant J 16, 735-43). The Δppd line is transformed to express the PPD polypeptides by standard techniques. Transgenic plants are confirmed by standard PCR analysis techniques with a combination of transgene-specific and T-DNA primers.
Complementation of the Δppd line to produce a wild-type leaf and rosette phenotype in T1 seedlings (the off-spring of the infiltrated plant) confirms PEAPOD functionality of the introduced gene, which can be shown in photographs.

As for `CC(C)(C)[C@@H](O)[C@@H](Cc1ccc(Cl)cc1)n1cncn1` (racemic) [PAC, paclobutrazol], the hypocotyl length result in test [1] (PPD-OX seedlings, PAC beyond 0.1 μM) is “decrease in hypocotyl length”. The hypocotyl elongation result is “relatively insensitive” in test [1] (PPD-OX seedlings, PAC up to 0.1 μM); “dose dependent decrease of hypocotyl elongation” in test [1] (wild type seedlings, 0 to 10 μM PAC, 5 days); “larger reduction in hypocotyl elongation” in test [1] (Δppd seedlings, 0 to 10 μM PAC, compared with wild type).

Consider `C=C1C[C@]23C[C@@]1(O)CC[C@H]2[C@@]12C=C[C@H](O)[C@@](C)(C(=O)O1)[C@H]2[C@@H]3C(=O)O` [GA, gibberellic acid], for which the hypocotyl elongation entry in test [1] (PPD-OX seedlings, 1 μM GA, 5 days) is reported as “increased hypocotyl elongation”; in test [1] (PPD-OX seedlings, up to 10 μM GA, 5 days), “hypersensitive elongation”; in test [1] (WT seedlings, 5-50 μM GA, 5 days), “elongation of the WT hypocotyl occurred in a dose dependent manner”; in test [1] (wild type (WT) seedlings, 1 μM GA, 5 days) it was “did not promote elongation”; in test [1] (Δppd seedlings, 1 μM GA, 5 days), “increased hypocotyl elongation”; in test [1] (Δppd seedlings, up to 5 μM GA, 5 days), “hypersensitive elongation”.

B1: Amborella trichopoda PPD: PEAPOD protein of Amborella trichopoda, SEQ ID NO: 12 (protein, listed as Amborella trichopoda)
chain: MTAGDGSIRSILDKPLEELTEEDISQLTREDCRRYLKEKGMRRPSWNKYQAIQQVLSLKGLLEGKPCDDNSDVFSHRSPITVIPNVGSMREKEKAVNIADPEISGSHQPNFRREIHETTRERALPASDWPPSQEPVSQMTIFYAGAVNVYNDIPEDKVQAIIYLAGKSDSLQQTNVIRTGPDQCIASAASPSLNDLHSRRIHPTSNITTSQSLRVATSLPVGPHSEVPKTRKTSVQRFLEKRKDRGRLKGTLASGGSSKRGSSCLELYATSRLKSEGVATTTTQSNMNNVVVSPSNPRMPLNPGSCSWVEN
As for B1, in the test with ryegrass plants [2], the “root biomass/growth/length/branching compared to WT plants” value was “increase in root biomass/growth/length/branching”. The “leaf biomass/growth/length/branching compared to WT plants” value in the test with ryegrass plants [3] is “increase in leaf biomass/growth/length/branching”. Further, the “PEAPOD functionality by complementation of the Δppd deletion mutant” value in the test on Arabidopsis Δppd mutant is on record as “functionally equivalent”.

B2: Selaginella moellendorffii PPD: PEAPOD protein of Selaginella moellendorffii, SEQ ID NO: 110/116 (protein, listed as Selaginella moellendorffii)
chain: MSSMVDFLGIEEKVSTSVSAERLKKLEELTDEDVMQLTREDCRRYLKEKGMRRPSWNKAQAVQQLLSLKSLCDPSPASSGAAKRSPSPPLDEAPAKKPMAMTSIDLKAAAAVDAANLTMFYDGAVSVFDDVSPDKASLFPLAYAIMLLAGNVKSWPSINVAANTNKVVISSYELPQARKASLQRFLQRRREKTAKEAASKGNSNKSPCHGESSGKHASDATDPATSPLLTEVSSGSGGGSAKGELRGHPFEGKPIPNPLLGLDSTRTGHHHHHHGS
In the case of B2, in the test with ryegrass plants [2], the “root biomass/growth/length/branching compared to WT plants” value was “increase in root biomass/growth/length/branching”. The “leaf biomass/growth/length/branching compared to WT plants” value in the test with ryegrass plants [3] is listed as “increase in leaf biomass/growth/length/branching”. Further, the “PEAPOD functionality by complementation of the Δppd deletion mutant” value in the test on Arabidopsis Δppd mutant is “functionally equivalent”.

B3: Trifolium repens PPD: PEAPOD protein of Trifolium repens, SEQ ID NO: 11 (protein, listed as Trifolium repens)
chain: MNGGSTVSFRSILDKPLNQLTEDDISQLTREDCRRFLKDKGMRRPSWNKSQAIQQVISLKALLEPTDDDLPAPVGVSSAIHHHHHHHPQPPQRNLNEAPVKGSDLDDTGFHTAEDLNKSTSTAVEIPTETNDANVVKSSGGCVASGSFGQMTIFYCGKVNVYDGVSPDKARSIMQLAACPSSFPQDNLLNKNAAVWASPCNIPIDKDVLFPNDTAILQVAQTDKMVEYPLQYREKGSIARDADVEGQASRNASLQRYREKRKDRGRSKGNKLTGITSSNFEMYLNLPVKLHASNGNSSRSSTDSPPQPRLPLVSGGSAENQPKVTLPIDLNDKDVQEC
Regarding B3, the “root biomass/growth/length/branching compared to WT plants” value in the test on ryegrass plants [2] is reported as “increase in root biomass/growth/length/branching”. In the test on ryegrass plants [3], the “leaf biomass/growth/length/branching compared to WT plants” value is listed as “increase in leaf biomass/growth/length/branching”. Besides, the “PEAPOD functionality by complementation of the Δppd deletion mutant” value with Arabidopsis Δppd mutant is reported as “functionally equivalent”.

B4: Musa acuminate PPD: PEAPOD protein of Musa acuminate, SEQ ID NO: 108/114 (protein, listed as Musa acuminata)
chain: MNPGETTPPSPLDKPLAELTEEDIAQLTREDCRRFLKAKGMRRPSWNKSQAIQQVISLKALLEGRPGCDDCPAGGGILQKLLTSSPSEPLSPPQDSPPPAPKEGGSGSQPLAKEPSPYRRRDPIPPPYSAGNPTCQTPIAGADLPHPPEKRCPSPRLTAEVPVGQMTIFYDGMVNVYDGVSADQARSIMELAASPVCFDDPTGAFSPARPPAFRFPPGLPRPAPVPTAPSFVGTFPISPAGKRCYSYCSFRSSVSLLTTTEGPTSRKASLQRYLEKRKDRYGHLPTESILLVSGSGGGSAKGELRGHPFEGKPIPNPLLGLDSTRTGHHHHHHGS
For B4, the “root biomass/growth/length/branching compared to WT plants” value with ryegrass plants [2] is listed as “increase in root biomass/growth/length/branching”. The “leaf biomass/growth/length/branching compared to WT plants” value in the test on ryegrass plants [3] was “increase in leaf biomass/growth/length/branching”. In addition, in the test with Arabidopsis Δppd mutant, the “PEAPOD functionality by complementation of the Δppd deletion mutant” value is “functionally equivalent”.

B5: Picea sitchensis PPD: PEAPOD protein of Picea sitchensis, SEQ ID NO: 5 (protein, listed as Picea sitchensis)
chain: MRGGERAPGSRPSLDKPLEELTEEDIFQLTREDCRRYLKEKGMRRPSWNKSQAIQQVLSLKSLFESKPNQQSKKPSKHKPATLQFETARDSTFAQSSVSQEQSLGFSWSKEVLDKGTAERQRLCSDSQEAHEIPRLGSKPPQSNTEGKRCAHDGHGRKSAQPLVRLPANFKNDCSNRQSSHTSESQPDTLLRSDSFQQPTAQLTIFYAGMVNVYDDVPLDKA
Take B5: the “root biomass/growth/length/branching compared to WT plants” value with ryegrass plants [2] was “increase in root biomass/growth/length/branching”. In the test with ryegrass plants [3], the “leaf biomass/growth/length/branching compared to WT plants” value is reported as “increase in leaf biomass/growth/length/branching”. For the same molecule, the “PEAPOD functionality by complementation of the Δppd deletion mutant” value in the test on Arabidopsis Δppd mutant is recorded as “functionally equivalent”.

For the origin of these results see patent US10487337B2, “Methods for monocot plant improvement” (Agresearch Limited, priority 2014, dated 2019).
